Measured values from patent US20140302063A1 (SECRETARY OF STATE FOR HEALTH, published 2014).
Where a chain is given by its changes, count along the chain named.

B1: R1a-F5 (VHH)
VHH: QLQLVESGGGLVQVGGSLRLSCAASGFPFDGYAIAWFRQAPGKEREGVSCRASDGNTYYAESLKGRLTMSTDNAKNTVYLQMNSLKPEDTAVYYCAAASWVASLWSPSEYDYWGQGTQVTVSS
B2: R2b-D8 (VHH)
VHH: QVQLVESGGGLVQPGGSLRLSCAASGFTFSWYDVGWYRRAPGKERELVADIASTRGTTNYADSVKGRFTISRDNAKNSVYLQMNSLKPEDTAVYYCNTRRDWRDYWGQGIQVTVSS
B3: R2a-B9 (VHH)
VHH: QVQLVESGGGLVQPGGSLRLSCAASGSAFSINAMGWYRQAPGEEREFVAAITAGGNTYYADSAKARFTISRDNAKNMLYLQMNSLKPEDTAMYYCAATKAFGIATITADYELWGQGTQVTVSS
B4: R2a-F9 (VHH)
VHH: QVQLVESGGGLVQPGGSLRLSCSASGSISSIVTMGWYRQAPGKERELVAVIGNYGNTNYADSVKGRFTVSRDNAKNTVYLQMNSLNVEDTAMYVCKFSSTVAPHEYWGQGTQVTVSS
B5: R1a-G5 (VHH)
VHH: QLQLVESGGGLVQPGGSLRLSCAASGSISRIVTMGWYRQASGKERELVAVIGNYGNTNYADSVKGRFTVSRDNAKDTAYLQMNGLNVEDTAIYYCKTSTTTPPYEYWGQGTQVTVSS
B6: R1a-F4 (VHH)
VHH: B5 VHH with L2V, A40G, S41P, G84N, I92M, T97C, Y104H, Y106F
B7: R1a-E5 (VHH)
VHH: QLQLVESGGGLVQPGGSLRLSCTASGFSLDNYAIGWFRRAPGEEREGVSFITSTSAVTKYADSVKGRFTISRDNAKNTVYLQMTSLKPEDTAVYYCAGTRWVPTMKADEYNYWGQGTQVTVSS
B8: R1a-H6 (VHH)
VHH: QVQLVESGGGLVQAGDSLRLSCTASVLTFSLYRVGWFRQAPGKEREFVAAIDWGDGPTTYADSVKGRFTISRDNAERTAYLQINSLKPEDTAVYYCGAGNTGSSDRSSSYVHWGQGTQVTVSS
B9: R2a-G9 (VHH)
VHH: QVQLVESGGGLVQPGGSLRLSCAASDNIFSFYTMGWYRQSPGKERELVAVIGNGGNTNYADSVKGRFTISRDNGKNKAHLQMNSLKPEDTAVYYCKASGPGGVEVWGQGTQVTVSS
B10: R1a-E6 (VHH)
VHH: QVQLVESGGGLVQPGGSLRLSCAASGFTLGAYAIAWFRQAPGKEREGVSCISPSDSFTEYGDSVKGRFTVSRDNAKNTVYLQMNSLQPEDTAVYYCAADPVCTAGWYRPSRFDLWGQGTQVTVSS
B11: R2b-E8 (VHH)
VHH: QVQLVESGGGLVQPGGSLRLSCAASGSFFSRYRMGWYRQAPGEQRELVAGITYDDSTNYAGSVKGRFTISRDNAKNTVHLQMNSLKPEDTAVYYCNLNPPGNLYWGQGTQVTVSS
B12: R2b-D9 (VHH)
VHH: QVQLVESGGGLVQPGGSLRLSCLASGSAFSLYTMGWYRQAPGNQRELVAAITSGESTNYADSVKGRFTISRDNAKNTVYLQMNSLKPEDTAVYYCNADPLSTGWGQYSYWGQGTQVTVSS
B13: R1a-G6 (VHH)
VHH: QVQLVESGGGLVQSGGSLRLSCAASGSMSRIITMGWYRQAPGMERELVAVIGNNDNTVYGDSVQGRFTVSRDNAKNTAYLQMNSLNAEDTAMYYCKISTLTPPHEYWGQGTQVTVSS
B14: R2a-E8 (VHH)
VHH: QLQLVESGGGLVQPGGSLRLSCTASGDIFVMYMIDWYRQAPGKQRELVASIDGRGTPMYADSVKGRFTISRDNAKNTVYLQMNSLKPEDTAVYSCHAKSPLVDNEYWGQGTQVTVSS
B15: R2a-H9 (VHH)
VHH: QVQLVESGGGLVQPGGSLRLSCAASTNIASFYTMGWYRQTPGQQRDVVAVIGNGGNTNYADSVKGRFTISRDGAKNTAHLQMNSLKPEDTDVYYCKASGPGGVILWGQGTQVTVSS
B16: R2a-G8 (VHH)
VHH: QLQLAESGGGLVQAGGSLRLSCAASGSTLNNNAIGWFRQAPGKEREGVSCMNSRDGTTNYADSVKGRFTISRDVAKNTVYLQMNSLKPEDTAVYFCAVKGFAPFLIGCPWGKAEYDYWGQGTQVTVSS
B17: R1a-B6 (VHH)
VHH: QVQLVESGGGLVQPGGSLRLSCAASGSFFSRYRMGWYRQAPGEQRELVASIAYDGSTSYADPVKGRFTISRDNANTVHLQMYSLKPDDTAVYYCNLDPPGILYWGQGTQVTVSS
B18: R1a-C5 (VHH)
VHH: QVQLVESGGGLVQPGGSLRLSCAASNDIFSFYTMGWYLQAIGKQREPVAVIGNGGNTNYAESVKGRFTISRDGAKNTAYLQMNSLKPEDTAVYYCMASGPGGLNVWGQGTQVTVSS
B19: R1a-A5 (VHH)
VHH: QVQLVESGGGLVQPGGSLRLSCSASGSAVLFSTYPMSWYRQAPGKQRELVAAVTTDGSTSYADYAKGRFTISRDNAKNTVYLQMNSLKPEDTAVYYCNARDGFFNRYDYWGQGTQVTVSS

Molecular target: T1, recombinant H2 A/Japan/305/1957 (H2N2) (Influenza A virus A/Japan/305/1957 …, UniProt P03451 16-525)
Test: SPR, single cycle kinetics

Binder | binding result
B1 | no binding (tested: 100 nM)
B2 | no binding (tested: 100 nM)
B3 | no binding (tested: 100 nM)
B4 | no binding (tested: 100 nM)
B5 | no binding (tested: 100 nM)
B6 | no binding (tested: 100 nM)
B7 | no binding (tested: 100 nM)
B8 | no binding (tested: 100 nM)
B9 | no binding (tested: 100 nM)
B10 | no binding (tested: 100 nM)
B11 | no binding (tested: 100 nM)
B12 | no binding (tested: 100 nM)
B13 | no binding (tested: 100 nM)

Molecular target: full length recombinant H1 residues 18-530 derived from A/California/06/09 (Influenza A virus A/California/06/09 (H1N1))
Test: SPR, single cycle kinetics, HA immobilised

Binder | Kd [nM]
B1 | 9.2
B3 | 0.2
B4 | 60
B5 | 24
B6 | 7.3
B7 | 0.6
B14 | 0.8
B15 | 2.8
B9 | 62
B16 | 3.1
B10 | 22.8
B11 | 8.2
B17 | 0.7
B18 | 1.9
B19 | 3.3
B12 | 0.4
B13 | 4.4

Molecular target: recombinant H5 A/Vietnam/1203/04 (H5N1) (Influenza A virus A/Vietnam/1203/04 (H5N1))
Test: SPR, single cycle kinetics, HA immobilised

Binder | Kd [nM]
B8 | 241
B16 | 9
B11 | 3.6
B17 | 1.7
B18 | 2.7
B19 | 0.7
B12 | 1.6

Molecular target: recombinant H9 A/HongKong/1073/99 (H9N2) (Influenza A virus A/HongKong/1073/99 (H9N2))
Test: SPR, single cycle kinetics, HA immobilised

Binder | Kd [nM]
B11 | 87
B17 | 7.6
B18 | 22
B12 | 59

Molecular target: Recombinant haemagglutinin HA1 domain (18-344) (A/California/06/09) H1N1 (Influenza A virus A/California/06/09 (H1N1))
Test: SPR, single cycle kinetics, HA1 domain immobilised

Binder | Kd [nM]
B1 | 6.1
B4 | 79
B5 | 26
B6 | 4.7
B15 | 4.7
B9 | 69
B16 | 7.7
B10 | 36
B18 | 734
B13 | 4.6

Molecular target: T1, recombinant H2 A/Japan/305/1957 (H2N2)
Test: SPR, single cycle kinetics, HA immobilised

Binder | Kd [nM]
B14 | 34
B15 | 40
B16 | 39
B17 | 43
B18 | 67
B19 | 186
